Each block holds one binder with its values, some of them ahead of it.
Experiments:
[1] = molecular target: T1, endogenous human LGR5 of cancer cell lines (human, UniProt O75473 22-907); assay: cell-based or functional assay
T1 sequence: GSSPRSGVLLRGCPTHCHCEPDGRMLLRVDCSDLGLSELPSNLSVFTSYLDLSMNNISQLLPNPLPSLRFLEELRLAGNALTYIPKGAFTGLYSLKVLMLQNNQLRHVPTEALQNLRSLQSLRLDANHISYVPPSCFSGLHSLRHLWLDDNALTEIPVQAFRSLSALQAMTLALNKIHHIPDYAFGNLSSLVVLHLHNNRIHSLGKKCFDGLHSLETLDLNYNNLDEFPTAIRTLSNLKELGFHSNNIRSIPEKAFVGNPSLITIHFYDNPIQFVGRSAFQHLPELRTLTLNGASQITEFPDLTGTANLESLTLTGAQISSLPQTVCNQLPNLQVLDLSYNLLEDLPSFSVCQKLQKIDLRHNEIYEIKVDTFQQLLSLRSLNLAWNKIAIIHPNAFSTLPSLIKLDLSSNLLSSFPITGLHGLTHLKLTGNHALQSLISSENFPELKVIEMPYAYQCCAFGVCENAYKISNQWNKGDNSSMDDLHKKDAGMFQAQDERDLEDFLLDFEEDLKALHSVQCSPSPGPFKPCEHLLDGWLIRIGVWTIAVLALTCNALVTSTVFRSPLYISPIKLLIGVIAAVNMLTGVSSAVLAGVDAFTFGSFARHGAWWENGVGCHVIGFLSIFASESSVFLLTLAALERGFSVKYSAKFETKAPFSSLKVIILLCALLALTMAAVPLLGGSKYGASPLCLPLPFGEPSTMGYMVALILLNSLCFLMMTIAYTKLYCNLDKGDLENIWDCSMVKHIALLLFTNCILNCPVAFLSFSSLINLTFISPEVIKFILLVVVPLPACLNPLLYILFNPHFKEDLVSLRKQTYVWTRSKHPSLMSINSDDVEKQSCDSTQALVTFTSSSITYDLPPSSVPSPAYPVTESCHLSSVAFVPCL

[2] = molecular target: T2, RAD-displayed Fragment 1A of human LGR5 (human); assay: bio-layer interferometry (Octet), captured RAD-displayed fragment
T2 construct: also called Frag1A
T2 sequence (O75473 22-37, looked up): GSSPRSGVLLRGCPTH

[3] = molecular target: T2, RAD-displayed Fragment 1A of human LGR5; assay: bio-layer interferometry (Octet), captured RAD-displayed fragment, 10 µM Fragment 1 peptide included
human LGR4 transgene = molecular target: T3, human LGR4 transgene (human, UniProt Q9BXB1 25-951); assay: flow cytometry of live HEK293T cells expressing LGR-eGFP transgenes, Fl-α-LGR5 against eGFP
T3 construct: whole, on cells; Overexpressed in HEK293T cells with N-terminal HA tag, V2 receptor tail and eGFP; also tested as lysate; also called hLGR4; LGR4-eGFP

murine LGR5 transgene = molecular target: T4, murine LGR5 transgene (mouse, UniProt Q9Z1P4 22-907); assay: as above
T4 construct: whole, on cells; Overexpressed in HEK293T cells with N-terminal HA tag, V2 receptor tail and eGFP; also tested as lysate; also called mLGR5; mLGR5-eGFP
T4 sequence (looked up): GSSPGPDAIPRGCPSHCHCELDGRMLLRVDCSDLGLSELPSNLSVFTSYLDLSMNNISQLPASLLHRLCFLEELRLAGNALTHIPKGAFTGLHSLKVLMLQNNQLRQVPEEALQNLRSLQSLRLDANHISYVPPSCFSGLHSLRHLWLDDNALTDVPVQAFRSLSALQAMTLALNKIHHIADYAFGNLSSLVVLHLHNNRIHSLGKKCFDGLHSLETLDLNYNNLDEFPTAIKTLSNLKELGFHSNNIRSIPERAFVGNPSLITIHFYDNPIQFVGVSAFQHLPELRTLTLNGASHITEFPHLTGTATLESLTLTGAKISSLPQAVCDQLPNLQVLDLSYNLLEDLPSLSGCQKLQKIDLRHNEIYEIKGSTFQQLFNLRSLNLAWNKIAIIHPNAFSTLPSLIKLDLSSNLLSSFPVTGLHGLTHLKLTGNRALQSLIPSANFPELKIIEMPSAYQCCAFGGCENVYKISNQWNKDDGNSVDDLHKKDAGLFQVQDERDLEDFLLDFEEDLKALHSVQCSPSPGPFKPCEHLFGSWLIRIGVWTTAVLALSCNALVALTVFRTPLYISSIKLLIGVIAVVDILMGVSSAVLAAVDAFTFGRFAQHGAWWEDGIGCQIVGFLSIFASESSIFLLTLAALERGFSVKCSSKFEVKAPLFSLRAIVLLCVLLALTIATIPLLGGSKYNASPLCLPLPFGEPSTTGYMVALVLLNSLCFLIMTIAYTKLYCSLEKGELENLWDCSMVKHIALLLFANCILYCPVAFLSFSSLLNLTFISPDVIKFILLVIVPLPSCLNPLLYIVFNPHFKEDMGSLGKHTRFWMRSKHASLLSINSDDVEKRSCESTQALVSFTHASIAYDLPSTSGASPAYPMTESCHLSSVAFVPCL

human LGR6 transgene = molecular target: T5, human LGR6 transgene (human, UniProt Q9HBX8 25-967); assay: immunofluorescence of HEK293T cells expressing LGR-eGFP transgenes, stained with fluorescent clone 2
T5 construct: whole, on cells; Overexpressed in HEK293T cells with N-terminal HA tag, V2 receptor tail and eGFP; also tested as lysate; also called hLGR6; LGR6-eGFP
T5 sequence (looked up): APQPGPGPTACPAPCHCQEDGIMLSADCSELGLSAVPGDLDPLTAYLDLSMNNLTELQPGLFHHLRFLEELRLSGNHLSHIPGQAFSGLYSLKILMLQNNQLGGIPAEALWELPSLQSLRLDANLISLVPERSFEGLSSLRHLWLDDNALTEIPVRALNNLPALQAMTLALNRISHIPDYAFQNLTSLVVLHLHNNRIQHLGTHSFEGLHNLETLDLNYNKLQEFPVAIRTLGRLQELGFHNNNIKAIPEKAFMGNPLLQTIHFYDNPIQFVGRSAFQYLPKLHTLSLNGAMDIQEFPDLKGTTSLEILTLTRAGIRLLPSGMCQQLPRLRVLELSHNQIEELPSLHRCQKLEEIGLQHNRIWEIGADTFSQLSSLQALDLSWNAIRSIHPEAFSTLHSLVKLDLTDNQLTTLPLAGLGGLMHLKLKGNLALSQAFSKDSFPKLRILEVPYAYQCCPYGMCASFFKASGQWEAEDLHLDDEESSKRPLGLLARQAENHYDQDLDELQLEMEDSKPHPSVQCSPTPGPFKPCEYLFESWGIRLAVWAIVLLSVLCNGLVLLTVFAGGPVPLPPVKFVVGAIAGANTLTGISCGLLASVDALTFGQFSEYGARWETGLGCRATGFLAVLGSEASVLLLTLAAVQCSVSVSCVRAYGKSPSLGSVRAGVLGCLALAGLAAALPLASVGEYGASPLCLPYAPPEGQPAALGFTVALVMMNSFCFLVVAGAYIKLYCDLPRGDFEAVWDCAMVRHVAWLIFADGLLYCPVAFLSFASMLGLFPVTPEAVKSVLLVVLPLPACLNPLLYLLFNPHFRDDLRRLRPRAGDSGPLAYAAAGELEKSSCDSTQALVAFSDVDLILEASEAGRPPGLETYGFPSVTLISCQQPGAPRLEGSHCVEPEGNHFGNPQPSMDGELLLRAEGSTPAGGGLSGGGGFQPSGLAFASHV

murine LGR4 transgene = molecular target: T6, murine LGR4 transgene (mouse, UniProt A2ARI4 25-951); assay: western blot of lysates of HEK293T cells expressing HA-tagged LGR-eGFP transgenes, probed with hybridoma clone 2
T6 construct: whole, on cells; Overexpressed in HEK293T cells with N-terminal HA tag, V2 receptor tail and eGFP; also tested as lysate; also called mLGR4

murine LGR6 transgene = molecular target: T7, murine LGR6 transgene (mouse, UniProt Q3UVD5 23-967); assay: western blot of lysates of HEK293T cells expressing the LGR transgenes
T7 construct: whole, on cells; also called mLGR6
T7 sequence (looked up): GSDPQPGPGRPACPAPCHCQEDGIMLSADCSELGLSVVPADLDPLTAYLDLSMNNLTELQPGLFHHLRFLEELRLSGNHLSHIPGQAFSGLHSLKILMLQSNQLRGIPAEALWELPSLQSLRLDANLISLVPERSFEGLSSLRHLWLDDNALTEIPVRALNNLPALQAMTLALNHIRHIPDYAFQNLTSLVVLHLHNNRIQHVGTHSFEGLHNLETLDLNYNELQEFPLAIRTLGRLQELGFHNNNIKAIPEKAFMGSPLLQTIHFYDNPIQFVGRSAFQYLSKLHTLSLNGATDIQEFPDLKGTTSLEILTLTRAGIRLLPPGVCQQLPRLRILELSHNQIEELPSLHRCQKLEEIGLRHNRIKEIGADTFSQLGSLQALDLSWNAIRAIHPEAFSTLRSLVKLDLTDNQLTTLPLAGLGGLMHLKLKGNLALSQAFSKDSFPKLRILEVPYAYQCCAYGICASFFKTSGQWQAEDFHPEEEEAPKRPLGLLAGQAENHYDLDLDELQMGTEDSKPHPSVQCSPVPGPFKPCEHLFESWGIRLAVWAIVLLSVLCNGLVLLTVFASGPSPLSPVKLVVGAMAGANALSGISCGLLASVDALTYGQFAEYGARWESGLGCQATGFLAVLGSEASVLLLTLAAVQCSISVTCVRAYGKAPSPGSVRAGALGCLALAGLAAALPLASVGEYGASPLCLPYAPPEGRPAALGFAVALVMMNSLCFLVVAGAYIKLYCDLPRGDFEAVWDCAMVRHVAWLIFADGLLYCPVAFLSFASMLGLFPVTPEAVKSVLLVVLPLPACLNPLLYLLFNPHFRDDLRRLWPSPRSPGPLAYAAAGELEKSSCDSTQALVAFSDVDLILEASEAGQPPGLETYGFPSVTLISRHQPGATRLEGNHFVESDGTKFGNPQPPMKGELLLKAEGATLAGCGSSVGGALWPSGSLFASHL

α-LGR5 epitope peptide = molecular target: T8, α-LGR5 epitope peptide (human); assay: bio-layer interferometry (Octet), scFv absorbed to Ni-NTA biosensors, epitope peptide SEQ ID NO: 210 added; scFv fragment, not whole IgG
T8 construct: Peptide added to scFv-α-LGR5 absorbed on Ni-NTA biosensors; also called the peptide
T8 peptide: SSPRSGVLLRGCPTHCHC
Description: Binding affinities were determined by bio-layer interferometry measurements using the Octet platform.
Binding affinity was determined by biolayer interferometry on the Octet platform.

B1: α-LGR5 clone 2-ADC (antibody, mouse IgG2b, kappa, V domains shown)
VH: QVQLQQPGAELVKPGASVKLSCKASGYTFTNYWMQWVKQRPGQGLEWIGEIDPSDSYTNYNQKFKGKATLTVDTSSSTAYMQLSSLTSEDSAVYYCARSLSGYVDYWGQGTTLTVSS
VL: DIQMTQTTSSLSASLGDRVTISCRASQDISNRLNWYQQKPDGTVKLLISYRSRLHSGVPSRFSGSGSGTDYSLTISNLEQEDIATYFCQQGNSLPPTFGGGTKLEVRR
modifications: MMAE coupled through a divinyl pyrimidine bridging linker inserted within the heavy chain-light chain disulphide linkages, drug-to-antibody ratio of 4
notes: cleavable linker version; also called α-LGR5-ADC
EC50 of cell killing, LoVo cells [1]: 9 nM
EC50 of cell killing, NALM6 cells, single dose, three days [1]: 4 nM
EC50 of cell killing, REH cells [1]: 10 nM
estimated EC50 for organoid cell apoptosis (cleaved caspase 3), CRC organoid line 1 [1]: ~5 nM
estimated EC50 for organoid cell apoptosis (cleaved caspase 3), CRC organoid line 2 [1]: ~100 nM
Kd [2]: 2.7 nM

B3: α-LGR5 clone 2 (antibody, mouse IgG2b, kappa, V domains shown)
VH: QVQLQQPGAELVKPGASVKLSCKASGYTFTNYWMQWVKQRPGQGLEWIGEIDPSDSYTNYNQKFKGKATLTVDTSSSTAYMQLSSLTSEDSAVYYCARSLSGYVDYWGQGTTLTVSS
VL: DIQMTQTTSSLSASLGDRVTISCRASQDISNRLNWYQQKPDGTVKLLISYRSRLHSGVPSRFSGSGSGTDYSLTISNLEQEDIATYFCQQGNSLPPTFGGGTKLEVRR
notes: Murine monoclonal antibody; In immunofluorescence and flow cytometry it carried a fluorophore (Alexa647 or DyLight 650) and is given as FI-α-LGR5 / FL-α-LGR5; also called a-LGR5; hybridoma clone 2
Kd [3]: 1.1 nM
binding result (human LGR4 transgene): no binding
binding result (murine LGR5 transgene): no binding
binding result (human LGR6 transgene): no binding
binding result (murine LGR4 transgene): no binding
binding result (murine LGR6 transgene): no binding

B4: scFv-α-LGR5 (scFv)
scFv: EIVMTQSPATLSLSPGERATLSCRASQDISNRLNWYQQKPGQAVRLLISYRSRRHTGIPARFSGSGSGTDYTLTISSLEPEDFAVYYCQQGNSLPPTFGGGTKLEIKGGGGSGGGGSGGGGSGGGGSQVQLVQSGAEVKKPGASVKVSCKASGYTFTNYWMQWVRQAPGQGLEWIGEIDPSDSYTNYNQKFQGRVTLTVDTSTSTAYMELSSLRSEDTAVYYCARSLSGYVDYWGQGTTVTVSS
notes: Made from human variant 4 (clone 2.4), VL-linker-VH; The protein in the Octet assay was 6xHis-tagged; also called scFv fragment; svFv-α-LGR5
Kd (α-LGR5 epitope peptide): 0.77 nM

Further lines, results first:

Kd [2]: 3.4 nM
B2: α-LGR5 humanized (antibody, V domains shown)
VH: QVQLQQPGAELVKPGASVKLSCKASGYTFTNYWMQWVKQRPGQGLEWIGEIDPSDSYTNYNQKFKGKATLTVDTSSSTAYMQLSSLTSEDSAVYYCARSLSGYVDYWGQGTTLTVSS
VL: DIQMTQTTSSLSASLGDRVTISCRASQDISNRLNWYQQKPDGTVKLLISYRSRLHSGVPSRFSGSGSGTDYSLTISNLEQEDIATYFCQQGNSLPPTFGGGTKLEVR
notes: Direct transposition of the murine clone 2 variable domains into the human IgG scaffold; also called α-LGR5 humanised

Kd [2]: 2 nM
B5: α-LGR5 variant 4-ADC (antibody, human IgG1, kappa, V domains shown)
VH: QVQLVQSGAEVKKPGASVKVSCKASGYTFTNYWMQWVRQAPGQGLEWIGEIDPSDSYTNYNQKFQGRVTLTVDTSTSTAYMELSSLRSEDTAVYYCARSLSGYVDYWGQGTTVTVSS
VL: EIVMTQSPATLSLSPGERATLSCRASQDISNRLNWYQQKPGQAVRLLISYRSRRHTGIPARFSGSGSGTDYTLTISSLEPEDFAVYYCQQGNSLPPTFGGGTKLEIKR
modifications: MMAE coupled through a divinyl pyrimidine bridging linker inserted within the heavy chain-light chain disulphide linkages, drug-to-antibody ratio of 4
notes: ADC version of humanized variant 4 (clone 2.4); also called α-LGR5v4-ADC

Reference: patent US20250257126A1 (CAMBRIDGE ENTERPRISE, published 2025)
